Measurements published in patent publication US20060057652A1.

Biological target: anaphase promoting complex subunit 1 (APC1) (Homo sapiens) (UniProt Q9H1A4)
Assay: cell-based or functional assay

anaphase promoting complex subunit 1 (APC1) (Homo sapiens), sequence (Q9H1A4 whole entry, one chain of several): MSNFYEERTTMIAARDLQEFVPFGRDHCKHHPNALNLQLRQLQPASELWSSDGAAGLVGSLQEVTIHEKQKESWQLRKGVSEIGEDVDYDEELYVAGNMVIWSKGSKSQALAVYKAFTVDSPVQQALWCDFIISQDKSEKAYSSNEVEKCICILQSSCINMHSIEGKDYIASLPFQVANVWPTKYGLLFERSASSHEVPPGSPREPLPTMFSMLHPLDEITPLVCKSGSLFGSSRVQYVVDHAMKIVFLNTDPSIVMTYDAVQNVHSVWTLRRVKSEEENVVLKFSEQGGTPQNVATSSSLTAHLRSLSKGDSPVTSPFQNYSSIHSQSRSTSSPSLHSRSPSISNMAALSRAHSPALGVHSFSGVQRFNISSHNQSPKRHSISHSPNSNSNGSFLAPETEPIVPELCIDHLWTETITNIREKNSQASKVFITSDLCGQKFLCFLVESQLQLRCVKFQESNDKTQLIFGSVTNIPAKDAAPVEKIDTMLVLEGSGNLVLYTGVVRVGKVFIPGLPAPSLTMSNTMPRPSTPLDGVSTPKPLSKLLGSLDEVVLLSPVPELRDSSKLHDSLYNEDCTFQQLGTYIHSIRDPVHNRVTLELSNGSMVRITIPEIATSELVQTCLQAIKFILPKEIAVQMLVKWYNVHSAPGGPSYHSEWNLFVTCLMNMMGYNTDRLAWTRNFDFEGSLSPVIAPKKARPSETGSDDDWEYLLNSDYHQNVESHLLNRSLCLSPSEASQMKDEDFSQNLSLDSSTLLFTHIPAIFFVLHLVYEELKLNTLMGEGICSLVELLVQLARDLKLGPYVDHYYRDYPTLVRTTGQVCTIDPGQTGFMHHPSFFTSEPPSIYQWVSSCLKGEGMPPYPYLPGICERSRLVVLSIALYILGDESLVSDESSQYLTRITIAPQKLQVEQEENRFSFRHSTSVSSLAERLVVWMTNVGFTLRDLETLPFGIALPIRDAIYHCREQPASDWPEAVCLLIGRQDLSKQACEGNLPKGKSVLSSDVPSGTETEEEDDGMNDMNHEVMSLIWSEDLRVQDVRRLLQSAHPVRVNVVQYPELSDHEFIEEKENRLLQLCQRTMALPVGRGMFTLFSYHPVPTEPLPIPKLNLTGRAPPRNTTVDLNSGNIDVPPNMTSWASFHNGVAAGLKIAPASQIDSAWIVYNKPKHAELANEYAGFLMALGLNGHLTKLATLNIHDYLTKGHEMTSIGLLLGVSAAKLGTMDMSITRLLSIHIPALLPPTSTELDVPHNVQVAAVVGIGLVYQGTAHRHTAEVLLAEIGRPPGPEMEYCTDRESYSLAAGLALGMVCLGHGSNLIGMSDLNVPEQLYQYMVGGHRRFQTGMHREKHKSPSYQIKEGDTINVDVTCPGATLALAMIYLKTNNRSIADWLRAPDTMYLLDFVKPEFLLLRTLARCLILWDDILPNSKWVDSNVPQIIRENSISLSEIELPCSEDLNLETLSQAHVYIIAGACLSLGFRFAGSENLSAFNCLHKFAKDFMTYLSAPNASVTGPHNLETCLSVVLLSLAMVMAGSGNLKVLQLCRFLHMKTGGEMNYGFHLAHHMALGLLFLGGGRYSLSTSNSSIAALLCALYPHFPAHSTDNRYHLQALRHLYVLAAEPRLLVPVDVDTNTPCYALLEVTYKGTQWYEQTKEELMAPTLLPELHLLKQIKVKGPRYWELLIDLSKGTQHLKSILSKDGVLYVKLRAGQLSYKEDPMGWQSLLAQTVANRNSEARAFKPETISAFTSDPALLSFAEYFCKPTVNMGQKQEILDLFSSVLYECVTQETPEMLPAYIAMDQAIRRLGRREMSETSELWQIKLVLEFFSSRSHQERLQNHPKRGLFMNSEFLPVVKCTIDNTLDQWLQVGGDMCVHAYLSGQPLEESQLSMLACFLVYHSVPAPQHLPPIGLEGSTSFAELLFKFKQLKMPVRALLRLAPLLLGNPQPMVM

Substance: GFP-Ap(42-121) (from UniProt Q99152 42-121)
- percent of wild-type killing activity (apoptotic morphology, H1299 cells) (percent of wild-type killing activity): 67

Substance: GFP-Ap(82-121) (from UniProt Q99152 82-121)
- percent of wild-type killing activity (apoptotic morphology, H1299 cells) (percent of wild-type killing activity): 55
